Source: article PMC10204179

Molecular target: protein G_1
Assay: SEC-MALS

protein G_1
stoichiometry N: 2
